{
  "source": "paper PMC8216847",
  "molecular_target": "SARS-HCoV-2 S2 extra-cellular domain (SARS-CoV-2)",
  "data": [
    {"substance": "CV3-25 (antibody)", "values": [
      {"measurement": "IC50 of neutralisation of SARS-CoV-2 pseudovirus on HEK293T-hACE2 cells", "value": 0.34, "unit": "µg/mL"}
    ]}
  ]
}
